Test results taken from FireProtDB (doi:10.1021/bi9910169).

B1: Lysozyme C, P61626 (parent)
chain: MKALIVLGLVLLSVTVQGKVFERCELARTLKRLGMDGYRGISLANWMCLAKWESGYNTRATNYNAGDRSTDYGIFQINSRYWCNDGKTPGAVNACHLSCSALLQDNIADAVACAKRVVRDPQGIRAWVAWRNRCQNRDVRQYVQGCGV

Variants of: B1
Conditions: Homo sapiens; pH 2.51; Thermal; DSC; glycine-HCl 0.05 M; reversible: yes; structure 1LZ1; whole UniProt chain shown

Q: Which Tm does the source give for MKALIVLGLVLLSVTVQGKVFERCELARVLKRLGMDGYRGISLANWMCLAKWESGYNTRATNYNAGDRSTDYGIFQINSRYWCNDGKTPGAVNACHLSCSALLQDNIADAVACAKRVVRDPQGIRAWVAWRNRCQNRDVRQYVQGCGV [T29V] here?
A: 62.9 °C

Q: What about the “unfolding enthalpy (calorimetric)” value of the same variant?
A: 104 kcal/mol

Q: And the “unfolding enthalpy (van 't Hoff)” value?
A: 107 kcal/mol

Same assay, conditions: Homo sapiens; pH 2.71; Thermal; DSC; glycine-HCl 0.05 M; reversible: yes; structure 1LZ1; whole UniProt chain shown

Q: For MKALIVLGLVLLSVTVQGKVFERCELARVLKRLGMDGYRGISLANWMCLAKWESGYNTRATNYNAGDRSTDYGIFQINSRYWCNDGKTPGAVNACHLSCSALLQDNIADAVACAKRVVRDPQGIRAWVAWRNRCQNRDVRQYVQGCGV [T29V], which Tm is on record?
A: 66.2 °C

Q: And the “unfolding enthalpy (calorimetric)” value?
A: 110 kcal/mol

Q: What about the “unfolding enthalpy (van 't Hoff)” value of the same variant?
A: 112 kcal/mol

Same assay, conditions: Homo sapiens; pH 2.81; Thermal; DSC; glycine-HCl 0.05 M; reversible: yes; structure 1LZ1; whole UniProt chain shown

Q: What does the source list for MKALIVLGLVLLSVTVQGKVFERCELARVLKRLGMDGYRGISLANWMCLAKWESGYNTRATNYNAGDRSTDYGIFQINSRYWCNDGKTPGAVNACHLSCSALLQDNIADAVACAKRVVRDPQGIRAWVAWRNRCQNRDVRQYVQGCGV [T29V]?
A: Tm: 68.7 °C; unfolding enthalpy (calorimetric): 114 kcal/mol; unfolding enthalpy (van 't Hoff): 117 kcal/mol

Same assay, conditions: Homo sapiens; pH 3.19; Thermal; DSC; glycine-HCl 0.05 M; reversible: yes; structure 1LZ1; whole UniProt chain shown

Q: With MKALIVLGLVLLSVTVQGKVFERCELARVLKRLGMDGYRGISLANWMCLAKWESGYNTRATNYNAGDRSTDYGIFQINSRYWCNDGKTPGAVNACHLSCSALLQDNIADAVACAKRVVRDPQGIRAWVAWRNRCQNRDVRQYVQGCGV [T29V] as the variant, how does the Tm read?
A: 73 °C

Q: What about the “unfolding enthalpy (calorimetric)” value of the same variant?
A: 117 kcal/mol

Q: What about the “unfolding enthalpy (van 't Hoff)” value of the same variant?
A: 121 kcal/mol

Same assay, conditions: Homo sapiens; pH 2.74; Thermal; DSC; glycine-HCl 0.05 M; reversible: yes; structure 1LZ1; whole UniProt chain shown

Q: What does the source list for MKALIVLGLVLLSVTVQGKVFERCELARALKRLGMDGYRGISLANWMCLAKWESGYNTRATNYNAGDRSTDYGIFQINSRYWCNDGKTPGAVNACHLSCSALLQDNIADAVACAKRVVRDPQGIRAWVAWRNRCQNRDVRQYVQGCGV [T29A]?
A: Tm: 66.8 °C; unfolding enthalpy (calorimetric): 112 kcal/mol; unfolding enthalpy (van 't Hoff): 115 kcal/mol

Same assay, conditions: Homo sapiens; pH 2.82; Thermal; DSC; glycine-HCl 0.05 M; reversible: yes; structure 1LZ1; whole UniProt chain shown

Q: With MKALIVLGLVLLSVTVQGKVFERCELARALKRLGMDGYRGISLANWMCLAKWESGYNTRATNYNAGDRSTDYGIFQINSRYWCNDGKTPGAVNACHLSCSALLQDNIADAVACAKRVVRDPQGIRAWVAWRNRCQNRDVRQYVQGCGV [T29A] as the variant, how does the Tm read?
A: 68.5 °C

Q: And the “unfolding enthalpy (calorimetric)” value?
A: 115 kcal/mol

Q: What about the “unfolding enthalpy (van 't Hoff)” value of the same variant?
A: 116 kcal/mol

Same assay, conditions: Homo sapiens; pH 3.02; Thermal; DSC; glycine-HCl 0.05 M; reversible: yes; structure 1LZ1; whole UniProt chain shown

Q: For MKALIVLGLVLLSVTVQGKVFERCELARALKRLGMDGYRGISLANWMCLAKWESGYNTRATNYNAGDRSTDYGIFQINSRYWCNDGKTPGAVNACHLSCSALLQDNIADAVACAKRVVRDPQGIRAWVAWRNRCQNRDVRQYVQGCGV [T29A], which Tm is on record?
A: 71.4 °C

Q: And the “unfolding enthalpy (calorimetric)” value?
A: 116 kcal/mol

Q: What about the “unfolding enthalpy (van 't Hoff)” value of the same variant?
A: 119 kcal/mol

Same assay, conditions: Homo sapiens; pH 3.22; Thermal; DSC; glycine-HCl 0.05 M; reversible: yes; structure 1LZ1; whole UniProt chain shown

Q: With MKALIVLGLVLLSVTVQGKVFERCELARALKRLGMDGYRGISLANWMCLAKWESGYNTRATNYNAGDRSTDYGIFQINSRYWCNDGKTPGAVNACHLSCSALLQDNIADAVACAKRVVRDPQGIRAWVAWRNRCQNRDVRQYVQGCGV [T29A] as the variant, how does the Tm read?
A: 73.4 °C

Q: What about the “unfolding enthalpy (calorimetric)” value of the same variant?
A: 119 kcal/mol

Q: And the “unfolding enthalpy (van 't Hoff)” value?
A: 120 kcal/mol

Same assay, conditions: Homo sapiens; pH 2.5; Thermal; DSC; glycine-HCl 0.05 M; reversible: yes; structure 1LZ1; whole UniProt chain shown

Q: Which results are given for MKALIVLGLVLLSVTVQGKVFERCELARTLKRLGMDGYRGISLANWMCLAKWESGYNTRATNYNAGDRSVDYGIFQINSRYWCNDGKTPGAVNACHLSCSALLQDNIADAVACAKRVVRDPQGIRAWVAWRNRCQNRDVRQYVQGCGV [T70V]?
A: Tm: 58.8 °C; unfolding enthalpy (calorimetric): 98.7 kcal/mol; unfolding enthalpy (van 't Hoff): 104 kcal/mol

Q: Which Tm does the source give for MKALIVLGLVLLSVTVQGKVFERCELARTLKRLGMDGYRGISLANWMCLAKWESGYNTRATNYNAGDRSTDYGIFQINSRYWCNDGKVPGAVNACHLSCSALLQDNIADAVACAKRVVRDPQGIRAWVAWRNRCQNRDVRQYVQGCGV [T88V] here?
A: 59.5 °C

Q: And the “unfolding enthalpy (calorimetric)” value?
A: 102 kcal/mol

Q: And the “unfolding enthalpy (van 't Hoff)” value?
A: 106 kcal/mol

Same assay, conditions: Homo sapiens; pH 2.7; Thermal; DSC; glycine-HCl 0.05 M; reversible: yes; structure 1LZ1; whole UniProt chain shown

Q: With MKALIVLGLVLLSVTVQGKVFERCELARTLKRLGMDGYRGISLANWMCLAKWESGYNTRATNYNAGDRSVDYGIFQINSRYWCNDGKTPGAVNACHLSCSALLQDNIADAVACAKRVVRDPQGIRAWVAWRNRCQNRDVRQYVQGCGV [T70V] as the variant, how does the Tm read?
A: 62.1 °C

Q: What about the “unfolding enthalpy (calorimetric)” value of the same variant?
A: 102 kcal/mol

Q: What about the “unfolding enthalpy (van 't Hoff)” value of the same variant?
A: 107 kcal/mol

Q: For MKALIVLGLVLLSVTVQGKVFERCELARTLKRLGMDGYRGISLANWMCLAKWESGYNTRATNYNAGDRSADYGIFQINSRYWCNDGKTPGAVNACHLSCSALLQDNIADAVACAKRVVRDPQGIRAWVAWRNRCQNRDVRQYVQGCGV [T70A], which Tm is on record?
A: 61.9 °C

Q: What about the “unfolding enthalpy (calorimetric)” value of the same variant?
A: 103 kcal/mol

Q: And the “unfolding enthalpy (van 't Hoff)” value?
A: 109 kcal/mol

Q: For MKALIVLGLVLLSVTVQGKVFERCELARTLKRLGMDGYRGISLANWMCLAKWESGYNTRATNYNAGDRSTDYGIFQINSRYWCNDGKVPGAVNACHLSCSALLQDNIADAVACAKRVVRDPQGIRAWVAWRNRCQNRDVRQYVQGCGV [T88V], which Tm is on record?
A: 62.6 °C

Q: What about the “unfolding enthalpy (calorimetric)” value of the same variant?
A: 107 kcal/mol

Q: What about the “unfolding enthalpy (van 't Hoff)” value of the same variant?
A: 111 kcal/mol

Same assay, conditions: Homo sapiens; pH 2.85; Thermal; DSC; glycine-HCl 0.05 M; reversible: yes; structure 1LZ1; whole UniProt chain shown

Q: What does the source list for MKALIVLGLVLLSVTVQGKVFERCELARTLKRLGMDGYRGISLANWMCLAKWESGYNTRATNYNAGDRSVDYGIFQINSRYWCNDGKTPGAVNACHLSCSALLQDNIADAVACAKRVVRDPQGIRAWVAWRNRCQNRDVRQYVQGCGV [T70V]?
A: Tm: 64.2 °C; unfolding enthalpy (calorimetric): 105 kcal/mol; unfolding enthalpy (van 't Hoff): 110 kcal/mol

Q: With MKALIVLGLVLLSVTVQGKVFERCELARTLKRLGMDGYRGISLANWMCLAKWESGYNTRATNYNAGDRSADYGIFQINSRYWCNDGKTPGAVNACHLSCSALLQDNIADAVACAKRVVRDPQGIRAWVAWRNRCQNRDVRQYVQGCGV [T70A] as the variant, how does the Tm read?
A: 64.4 °C

Q: And the “unfolding enthalpy (calorimetric)” value?
A: 105 kcal/mol

Q: And the “unfolding enthalpy (van 't Hoff)” value?
A: 112 kcal/mol

Q: Which Tm does the source give for MKALIVLGLVLLSVTVQGKVFERCELARTLKRLGMDGYRGISLANWMCLAKWESGYNTRATNYNAGDRSTDYGIFQINSRYWCNDGKVPGAVNACHLSCSALLQDNIADAVACAKRVVRDPQGIRAWVAWRNRCQNRDVRQYVQGCGV [T88V] here?
A: 65.3 °C

Q: What about the “unfolding enthalpy (calorimetric)” value of the same variant?
A: 112 kcal/mol

Q: And the “unfolding enthalpy (van 't Hoff)” value?
A: 117 kcal/mol

Same assay, conditions: Homo sapiens; pH 3; Thermal; DSC; glycine-HCl 0.05 M; reversible: yes; structure 1LZ1; whole UniProt chain shown

Q: What does the source list for MKALIVLGLVLLSVTVQGKVFERCELARTLKRLGMDGYRGISLANWMCLAKWESGYNTRATNYNAGDRSVDYGIFQINSRYWCNDGKTPGAVNACHLSCSALLQDNIADAVACAKRVVRDPQGIRAWVAWRNRCQNRDVRQYVQGCGV [T70V]?
A: Tm: 66.6 °C; unfolding enthalpy (calorimetric): 107 kcal/mol; unfolding enthalpy (van 't Hoff): 113 kcal/mol

Q: With MKALIVLGLVLLSVTVQGKVFERCELARTLKRLGMDGYRGISLANWMCLAKWESGYNTRATNYNAGDRSADYGIFQINSRYWCNDGKTPGAVNACHLSCSALLQDNIADAVACAKRVVRDPQGIRAWVAWRNRCQNRDVRQYVQGCGV [T70A] as the variant, how does the Tm read?
A: 66.9 °C

Q: What about the “unfolding enthalpy (calorimetric)” value of the same variant?
A: 108 kcal/mol

Q: And the “unfolding enthalpy (van 't Hoff)” value?
A: 114 kcal/mol

Q: Which Tm does the source give for MKALIVLGLVLLSVTVQGKVFERCELARTLKRLGMDGYRGISLANWMCLAKWESGYNTRATNYNAGDRSTDYGIFQINSRYWCNDGKVPGAVNACHLSCSALLQDNIADAVACAKRVVRDPQGIRAWVAWRNRCQNRDVRQYVQGCGV [T88V] here?
A: 67.6 °C

Q: What about the “unfolding enthalpy (calorimetric)” value of the same variant?
A: 115 kcal/mol

Q: What about the “unfolding enthalpy (van 't Hoff)” value of the same variant?
A: 121 kcal/mol

Same assay, conditions: Homo sapiens; pH 3.1; Thermal; DSC; glycine-HCl 0.05 M; reversible: yes; structure 1LZ1; whole UniProt chain shown

Q: With MKALIVLGLVLLSVTVQGKVFERCELARTLKRLGMDGYRGISLANWMCLAKWESGYNTRATNYNAGDRSVDYGIFQINSRYWCNDGKTPGAVNACHLSCSALLQDNIADAVACAKRVVRDPQGIRAWVAWRNRCQNRDVRQYVQGCGV [T70V] as the variant, how does the Tm read?
A: 68.7 °C

Q: And the “unfolding enthalpy (calorimetric)” value?
A: 111 kcal/mol

Q: What about the “unfolding enthalpy (van 't Hoff)” value of the same variant?
A: 114 kcal/mol

Q: What does the source list for MKALIVLGLVLLSVTVQGKVFERCELARTLKRLGMDGYRGISLANWMCLAKWESGYNTRATNYNAGDRSADYGIFQINSRYWCNDGKTPGAVNACHLSCSALLQDNIADAVACAKRVVRDPQGIRAWVAWRNRCQNRDVRQYVQGCGV [T70A]?
A: Tm: 68.9 °C; unfolding enthalpy (calorimetric): 109 kcal/mol; unfolding enthalpy (van 't Hoff): 118 kcal/mol

Q: Which results are given for MKALIVLGLVLLSVTVQGKVFERCELARTLKRLGMDGYRGISLANWMCLAKWESGYNTRATNYNAGDRSTDYGIFQINSRYWCNDGKVPGAVNACHLSCSALLQDNIADAVACAKRVVRDPQGIRAWVAWRNRCQNRDVRQYVQGCGV [T88V]?
A: Tm: 70.3 °C; unfolding enthalpy (calorimetric): 119 kcal/mol; unfolding enthalpy (van 't Hoff): 123 kcal/mol
